Measurements as given in publication PMC13364712.

Biological target: actin filaments (actin from Gallus gallus skeletal muscle) (Gallus gallus (chicken)) (UniProt P68139)
Experiment: co-sedimentation; 4 µM EGFP–SFM peptide with 0–200 µM actin filaments in F buffer, 1 h at room temperature, 100,000g for 30 min; pellet read by anti-EGFP western blot; one-site specific binding fit; apparent

Kd | Substance
6 µM | EGFP-tagged USP54 SFM peptide, wild type
2 µM | EGFP–Lifeact (peptide)
